Data: PMC12423313, “Protein-based tools for the detection and characterisation of Oropouche virus infection” (EMBO Molecular Medicine, 2025)

T1: OROV nucleoprotein (N) of strain BeAn19991, native, in virus stocks and infected cells (Oropouche virus strain BeAn19991)
T1 construct: N protein of Oropouche virus strain BeAn19991, GenBank AJE24680.1, as made by the virus; also called OROV BeAn19991
T1 chain: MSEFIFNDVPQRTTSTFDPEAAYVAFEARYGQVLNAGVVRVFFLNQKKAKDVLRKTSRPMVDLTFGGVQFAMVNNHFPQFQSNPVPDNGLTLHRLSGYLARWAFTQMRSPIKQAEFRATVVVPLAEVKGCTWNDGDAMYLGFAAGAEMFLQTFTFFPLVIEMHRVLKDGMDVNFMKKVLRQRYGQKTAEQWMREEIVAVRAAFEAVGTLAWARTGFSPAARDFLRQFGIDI

T2: OROV nucleoprotein (N), recombinant, strain BeAn19991 (Oropouche virus strain BeAn19991)
T2 chain: T1 chain

B1: nanobody NpF2, His8-tagged (VHH)
VHH: QVQLVESGGGAVQAGGSLRLSCAASGRTFSSFPMGWFRQAPGKEREFIAAINWSGASKYYADSVKGRFAISRDNAKNTVYLQMNSLTPEDTAVYSCAAGSGRYGYTFSKEYTYWGQGTQVIVAS
notes: as the VHH of m14; also called OROV Np Nb F2 H8; not shown: His8, C-terminal, kept
B2: biotinylated nanobody NpF2 (AviTag-His9) (VHH)
VHH: B1 VHH
notes: VHH NpF2 from an immunised llama; also called bNpF2; OROV Np Nb F2 BAP H9; not shown: AviTag, C-terminal, kept
B3: nanobody SpC6, His8-tagged (VHH)
VHH: QVQLVESGGGSVQAGGSLRLSCAASGRTFSRYAMGWLRQAPGKEREFVAAITWSGGNTYYADSVKGRFTITRDDAKNTVYLQINNPKPEDTAVYYCAAGTQTGRIRDKGPSYWGQGTQVTVSS
notes: as the VHH of m19; also called OROV Gc Spike Nb C6 H8; not shown: His8, C-terminal, kept
B4: OROV nucleoprotein (N) of strain TRVL, native, in virus stock (natural protein)
chain: T1 chain
notes: N protein of Oropouche virus strain TRVL (Anderson et al, 1961); also called OROV TRVL
B5: OROV nucleoprotein (N) of the 2023-4 epidemic isolate AM0088, native (natural protein)
chain: T1 chain
notes: also called OROV AM0088 N
B6: OROV nucleoprotein (N) in serum of patients with acute OROV infection (natural protein)
chain: T1 chain
notes: N protein of the Oropouche virus infecting the patients; also called OROV N protein
B7: nanobody SpE8, His8-tagged (VHH)
VHH: QVQLVESGGGFVRAGDSLRLSCAASGRAFSTYAMGWFRQAPGKEREFVAGITLGSRITQYADSVKGRFTISRDNARQTMYLQMNNLQPEDTADYYCAARGQGSPPLRNRWSADDYNYWGQGLQVTVSS
notes: as the VHH of m21; also called OROV Gc Spike Nb E8 H8; not shown: His8, C-terminal, kept
B8: AlexaFluor568-conjugated OROV SpE8 nanobody (Cys-His8) (VHH)
VHH: B7 VHH
notes: as the VHH of m21; also called OROV Sp Nb E8 CH8
B9: biotinylated nanobody NpA2 (AviTag-His9) (VHH)
VHH: QVQLVESGGGLVQPGGSVRLSCAASGGIFSFNAMAWYRQAPGKQRDIVALIANDGNTNYADSVKGRFTISRDNAKNTVYLQMNSLQPEDTAVYYCSALRRGAQDWGQGTQVTVSS
notes: VHH NpA2 from an immunised llama; also called bNpA2; OROV Np Nb A2 BAP H9; not shown: AviTag, C-terminal, kept
B10: nanobody SpB6, His8-tagged (VHH)
VHH: QVQLVESGGGLVQPGDSLRLSCAASGRTFSNYAMGWFRQAPGKEREKVAALSRSGTSTYYLDRVKGRFTISRDNTKNMVYLQMNSLEPEDTAVYYCAADPLFQNAAYHYSGQGTQVTVST
notes: as the VHH of m18; also called OROV Gc Spike Nb B6 H8; not shown: His8, C-terminal, kept
B11: biotinylated nanobody NpE3 (AviTag-His9) (VHH)
VHH: QVQLVESGGGLVRPGGSLRLSCAASGFTFSNAYMTWIRQAPGKDLEWVSSIYYGDMTSYATSVKGRFTISRDNAKNTLYLQMNNLKPEDSAIYYCTKGDERGQGTQVTVSS
notes: VHH NpE3 from an immunised llama; also called bNpE3; OROV Np Nb E3 BAP H9; not shown: AviTag, C-terminal, kept
B12: AlexaFluor568-conjugated OROV NpE3 nanobody (Cys-His8) (VHH)
VHH: B11 VHH
notes: as the VHH of m13; also called OROV Np Nb E3 CH8
B13: biotinylated nanobody NpE2 (AviTag-His9) (VHH)
VHH: QVQLVESGGGLVQAGDSLRLSCVASGFTPNPAVSWVRQAPGKDLEWVSSIYHGDITSYATSVKGRFTISRDNAKNTVYLQMNSLKPEDSAIYYCTKGDSRGQGTQVTVSS
notes: VHH NpE2 from an immunised llama; also called bNpE2; OROV Np Nb E2 BAP H9; not shown: AviTag, C-terminal, kept
B14: biotinylated nanobody SpC7 (AviTag-His9) (VHH)
VHH: QVQLVESGGGLVQAGGSLRLSCAASGRTFSPNAMGWFRQAPGKEREFVSAISWSGGSTTYADSVKGRFTISRDNAKNTVSLQMNSLKPEDTAVYYCAADLEGMVVADRIWGQGTQVTVSS
notes: VHH SpC7 from an immunised llama; also called bSpC7; (biotinylated)bSpC7; not shown: AviTag, C-terminal, kept
B15: nanobody SpC7, His8-tagged (VHH)
VHH: B14 VHH
notes: as the VHH of m20; also called OROV Gc Spike Nb C7 H8; not shown: His8, C-terminal, kept
B16: biotinylated nanobody NpD2 (AviTag-His9) (VHH)
VHH: QVQLVESGGGLAQPGGSLRLSCAASGFTLDYYSIGWFRQAPGKEREGVSCISSGGSTYYADSVKGRFAISSDNAKNTVYLQMNSLKPEDTAVYYCAADIMSCPGKYSAVADYWGQGTQVIVDS
notes: VHH NpD2 from an immunised llama; also called bNpD2; OROV Np Nb D2 BAP H9; not shown: AviTag, C-terminal, kept
B17: OROV Gc spike region (residues 482-894 of the M polyprotein), recombinant, strain BeAn19991 (domain or fragment, Oropouche virus strain BeAn19991)
chain: DEDCLSKDIKITYQELHNCIGPKIMGDTCVSKSELYSDLFSKNLVTEYDKKYFEPDTVNDQFNKIEFAQDAHRMILLERILYKTECEMLSLKKNSGPYNVAWRTYFKNHNIDLCSRHNYKMICQCINTHSMCKNTDIDYNKEIETYYKSNAAAYRADLNTIMDTLKTAFRGLTKVLIENYIEKDDSDALKALFSNITDSVQDNYQMIGILKFASKLLDINLGRSTRSAHHSIMTNEIPKSNPFTDYSYSNLNIKECMSPESLKCFKKRDSTPHTNHLLCKIDNKYKAFDWPEIETIQKGQKLCLGDSHCNLEFTAITADKIMSLTNCYKESFTAQPADMQAGIKKCSADEIGECTTLEDKTWPIIFCGGKYYYSDSKEHAKDGSINNYCLTNKCSEQRFPIHENWFKKCNWDK
notes: Gc spike region (head and stalk domains) of the M polyprotein of Oropouche virus strain BeAn19991, GenBank AJE24679.1, residues 482-894; also called Gc spike domain
B18: biotinylated nanobody NpG1 (AviTag-His9) (VHH)
VHH: QVQLVESGGGLVQPGDSLRLSCAASGRTFTDYPMAWFRQAPGKEREFVTAINWSGGATYYADSVKGRFTISRDNTRNTVFLQMNSLKPEDTAVYYCAGGSGRLSYNMDKEYIYWGQGIQVTVSS
notes: VHH NpG1 from an immunised llama; also called bNpG1; OROV Np Nb G1 BAP H9; not shown: AviTag, C-terminal, kept

What was measured:
[1] = molecular target: T1, OROV nucleoprotein (N) of strain …; test: ELISA; details: one partner purified
[2] = molecular target: T2, OROV nucleoprotein (N), recombinant, …; test: ELISA; details: both partners purified
[3] = molecular target: B4; test: ELISA; details: one partner purified
[4] = molecular target: T2, OROV nucleoprotein (N), recombinant, …; test: BLI; streptavidin biosensors loaded with biotinylated nanobodies, 1 µM OROV N with or without 25 µM competitor nanobody, 300 s association, 30 °C, PBS-T, Octet Red; details: both partners purified
[5] = molecular target: B17; test: ELISA; details: both partners purified
[6] = molecular target: T3, nanobody-Fc fusion FcNpD2, HRP-conjugated (llama); test: ELISA; details: one partner purified
T3 construct: as the VHH of m11; also called OROV FcNpD2; not shown: Fc (human IgG1 hinge and Fc domains 2 and 3), C-terminal, kept

[7] = molecular target: T4, biotinylated nanobody-Fc fusion bFcNpD2 (C-terminal AviTag) (llama); test: ELISA; details: one partner purified
T4 construct: as the VHH of m11; also called OROV FcNpD2 BAP; not shown: Fc (human IgG1 hinge and Fc domains 2 and 3), C-terminal, kept; AviTag, C-terminal, kept

[8] = molecular target: T5, OROV glycoprotein Gc of strain BeAn19991, native, in virus stocks and infected cells (Oropouche virus strain BeAn19991, UniProt A0A0B5CLT0); test: immunostaining of cells or tissue; details: one partner purified
T5 construct: On virus particles Gc stands with Gn; also called Gc spike; OROV BeAn19991

[9] = molecular target: T6, OROV glycoprotein Gc of the 2023-4 epidemic isolate AM0088, native (Oropouche virus isolate AM0088 …, UniProt A0A0B5CLT0, strain); test: immunostaining of cells or tissue; details: one partner purified
T6 construct: also called Gc spike; OROV AM0088

[10] = molecular target: T2, OROV nucleoprotein (N), recombinant, …; test: ELISA; […], biotinylated nanobody 2 µg/mL, […], room temperature; details: both partners purified
[11] = molecular target: T5, OROV glycoprotein Gc of strain …; test: ELISA; details: one partner purified
[12] = molecular target: T7, OROV glycoprotein Gc of strain TRVL, native, in virus stock (Oropouche virus strain TRVL (stand-in: …, UniProt A0A0B5CLT0, strain)); test: ELISA; details: one partner purified
T7 construct: also called Gc spike; OROV TRVL

[13] = molecular target: T1, OROV nucleoprotein (N) of strain …; test: ELISA; sandwich ELISA with nanobodies, […]; details: one partner purified
[14] = molecular target: B4; test: ELISA; sandwich ELISA with nanobodies, […]; details: one partner purified
[15] = molecular target: T1, OROV nucleoprotein (N) of strain …; test: immunostaining of cells or tissue; details: one partner purified
[16] = molecular target: B5; test: immunostaining of cells or tissue; details: one partner purified
[17] = molecular target: B17; test: ELISA; […], biotinylated nanobody 2 µg/mL, […], room temperature; details: both partners purified
[18] = molecular target: T5, OROV glycoprotein Gc of strain …; test: ELISA; sandwich ELISA with nanobodies, […]; details: one partner purified
[19] = molecular target: T7, OROV glycoprotein Gc of strain TRVL, …; test: ELISA; sandwich ELISA with nanobodies, […]; details: one partner purified
[20] = molecular target: T8, nanobody-Fc fusion FcSpB6 (llama); test: ELISA; details: both partners purified
T8 construct: as the VHH of m18; also called FcSpB6-HRP; OROV FcSpB6; not shown: Fc (human IgG1 hinge and Fc domains 2 and 3), C-terminal, kept

[21] = molecular target: T9, biotinylated nanobody-Fc fusion bFcSpC7 (C-terminal AviTag) (llama); test: ELISA; details: both partners purified
T9 construct: as the VHH of m20; also called OROV FcSpC7 BAP; not shown: Fc (human IgG1 hinge and Fc domains 2 and 3), C-terminal, kept; AviTag, C-terminal, kept

B1
binding result [1]: binds
binding result [2]: binds
binding result [3]: binds

B2
binding result [4]: binds

B3
binding result [5]: binds

B4
binding result [6]: binds
binding result [7]: binds

B5
binding result [6]: binds
binding result [7]: binds

B6
binding result [6]: binds
binding result [7]: binds

B7
binding result [5]: binds

B8
binding result [8]: binds
binding result [9]: binds

B9
binding result [10]: binds

B10
binding result [11]: binds
binding result [12]: binds
binding result [5]: binds

B11
binding result [2]: binds
binding result [13]: binds
binding result [14]: binds

B12
binding result [15]: binds
binding result [16]: binds

B13
binding result [4]: binds

B14
binding result [17]: binds
binding result [18]: binds
binding result [19]: binds

B15
binding result [5]: binds

B16
binding result [10]: binds

B17
binding result [20]: binds
binding result [21]: binds

B18
binding result [4]: binds
